Patent US20080089862A1 (published 2008)

Key:
Test in all cases: ELISA
[1] = target: peptide aptamer NNS8/N5 (MBP with C-terminal peptide […]) (Escherichia coli (strain K12), UniProt P0AEX9 29-392 = MBP)
[2] = target: peptide aptamer NNS8/N7 (MBP with C-terminal peptide […]) (Escherichia coli (strain K12), UniProt P0AEX9 29-392 = MBP)
[3] = target: peptide aptamer NNS8/N8 (MBP with C-terminal peptide […]) (Escherichia coli (strain K12), UniProt P0AEX9 29-392 = MBP)
[4] = target: peptide aptamer NNS8/N10 (MBP with C-terminal peptide […]) (Escherichia coli (strain K12), UniProt P0AEX9 29-392 = MBP)
[5] = target: peptide aptamer NNS8/N21 (MBP with C-terminal peptide […]) (Escherichia coli (strain K12), UniProt P0AEX9 29-392 = MBP)
[6] = target: peptide aptamer NNS8/N22 (MBP with C-terminal peptide […]) (Escherichia coli (strain K12), UniProt P0AEX9 29-392 = MBP)
[7] = target: peptide aptamer NNS8/N23 (MBP with C-terminal peptide […]) (Escherichia coli (strain K12), UniProt P0AEX9 29-392 = MBP)
[8] = target: peptide aptamer RB13 (MBP with C-terminal peptide […]) (Escherichia coli (strain K12), UniProt P0AEX9 29-392 = MBP)
[9] = target: peptide aptamer RB15 (MBP with C-terminal peptide […]) (Escherichia coli (strain K12), UniProt P0AEX9 29-392 = MBP)
[10] = target: peptide aptamer RB16 (MBP with C-terminal peptide […]) (Escherichia coli (strain K12), UniProt P0AEX9 29-392 = MBP)
[11] = target: peptide aptamer RB17 (MBP with C-terminal peptide […]) (Escherichia coli (strain K12), UniProt P0AEX9 29-392 = MBP)
[12] = target: peptide aptamer RB18 (MBP with C-terminal peptide […]) (Escherichia coli (strain K12), UniProt P0AEX9 29-392 = MBP)

Measured: binding result

B1: single-chain NS3 protease (scNS3) (enzyme)
chain: GSVVIVGRIILSGRAPITAYSQQTRGLLGCIITSLTGRDKNQVEGEVQVVSTATQSFLATCVNGVCWTVYHGAGSKTLAAPKGPITQMYTNVDQDLVGWPKPPGARSLTPCTCGSSDLYLVTRHADVIPVRRRGDSRGSLLSPRPVSYLKGSSGGPLLCPFGHAVGIFRAAVCTRGVAKAVDFVPVESMETTMRS
notes: domain: NS4A cofactor peptide;domain: NS3 protease domain
no binding: all assays above
